What follows are binders tested against T1, human CD33 expressed on cells (human, UniProt P20138 18-364) (assay: flow cytometry on Molm-13 cells, fluorophore-conjugated anti-human IgG secondary antibody, MFI as fold over background (FOB)).
T1 construct: endogenous CD33 of human AML cell lines and blood monocytes; also called cell-expressed CD33 (Molm-13, Mv4-11, monocytes)
T1 sequence (P20138 18-364): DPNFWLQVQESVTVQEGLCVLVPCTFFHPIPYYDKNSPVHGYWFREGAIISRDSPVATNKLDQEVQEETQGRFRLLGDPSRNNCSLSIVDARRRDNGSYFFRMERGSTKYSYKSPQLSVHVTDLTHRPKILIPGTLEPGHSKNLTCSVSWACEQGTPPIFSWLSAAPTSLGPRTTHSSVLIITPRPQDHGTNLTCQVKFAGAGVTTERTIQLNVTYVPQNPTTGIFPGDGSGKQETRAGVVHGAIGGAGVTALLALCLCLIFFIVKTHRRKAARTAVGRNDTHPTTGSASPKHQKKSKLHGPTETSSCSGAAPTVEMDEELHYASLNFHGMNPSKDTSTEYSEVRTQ
Experimental: Binding of the TriNKET was detected using a fluorophore conjugated anti-human IgG secondary antibody. Cells were analyzed by flow cytometry, binding MFI to cell expressed CD33 was normalized to secondary antibody controls to obtain fold over background values.

| Binder | binding result |
| --- | --- |
| A44.I07 (bispecific antibody) NKG2D-binding VH: not shown NKG2D-binding VL: DIQMTQSPSSVSASVGDRVTITCRASQGIDSWLAWYQQKPGKAPKLLIYAASSLQSGVPSRFSGSGSGTDFTLTISSLQPEDFATYYCQQGVSYPRTFGGGTKVEIK CD33-binding VH: EVQLVESGGGLVQPGGSLRLSCAASGFTFGSYWMSWVRQAPGKGLEWVATIKQDGSEKSYVDSVKGRFTISRDNAKNSLYLQMNSLRAEDTAVYYCARPLNAGELDVWGQGTMVTVSS CD33-binding VL: DIQMTQSPSTLSASVGDRVTITCRASQSISSWLAWYQQKPGKAPKLLIYEASSLESGVPSRFSGSGSGTEFTLTISSLQPDDFATYYCQQSQSYPPITFGGGTKVEIK | binds |
| A49.I07 (bispecific antibody) NKG2D-binding VH: EVQLVESGGGLVKPGGSLRLSCAASGFTFSSYSMNWVRQAPGKGLEWVSSISSSSSYIYYADSVKGRFTISRDNAKNSLYLQMNSLRAEDTAVYYCARGAPMGAAAGWFDPWGQGTLVTVSS NKG2D-binding VL: DIQMTQSPSSVSASVGDRVTITCRASQGISSWLAWYQQKPGKAPKLLIYAASSLQSGVPSRFSGSGSGTDFTLTISSLQPEDFATYYCQQGVSFPRTFGGGTKVEIK CD33-binding VH: EVQLVESGGGLVQPGGSLRLSCAASGFTFGSYWMSWVRQAPGKGLEWVATIKQDGSEKSYVDSVKGRFTISRDNAKNSLYLQMNSLRAEDTAVYYCARPLNAGELDVWGQGTMVTVSS CD33-binding VL: DIQMTQSPSTLSASVGDRVTITCRASQSISSWLAWYQQKPGKAPKLLIYEASSLESGVPSRFSGSGSGTEFTLTISSLQPDDFATYYCQQSQSYPPITFGGGTKVEIK | binds |
| F47.I35 (bispecific antibody) NKG2D-binding VH: QVQLQQWGAGLLKPSETLSLTCAVYGGSFSGYYWSWIRQPPGKGLEWIGEIDHSGSTNYNPSLKSRVTISVDTSKNQFSLKLSSVTAADTAVYYCARARGPWSFDPWGQGTLVTVSS NKG2D-binding VL: DIQMTQSPSTLSASVGDRVTITCRASQSISSWLAWYQQKPGKAPKLLIYKASSLESGVPSRFSGSGSGTEFTLTISSLQPDDFATYYCQQYDTFITFGGGTKVEIK CD33-binding VH: QLQLQESGPGLVKPSETLSLTCTVSGGSISSTDYYWGWIRQPPGKGLEWIGSIGYSGTYYNPSLKSRVTISVDTSKNQFSLKLSSVTAADTAVYYCARETAHDVHGMDVWGQGTTVTVSS CD33-binding VL: EIVLTQSPATLSLSPGERATLSCRASHSVYSYLAWYQQKPGQAPRLLIYDASNRATGIPARFSGSGSGTDFTLTISSLEPEDFAVYYCQQYDNLPTFGGGTKVEIK | binds |
| C26.G59 (bispecific antibody) NKG2D-binding VH: QVQLQQWGAGLLKPSETLSLTCAVYGGSFSGYYWSWIRQPPGKGLEWIGEIDHSGSTNYNPSLKSRVTISVDTSKNQFSLKLSSVTAADTAVYYCARARGPWSFDPWGQGTLVTVSS NKG2D-binding VL: DIQMTQSPSTLSASVGDRVTITCRASQSISSWLAWYQQKPGKAPKLLIYKASSLESGVPSRFSGSGSGTEFTLTISSLQPDDFATYYCQQYGSFPITFGGGTKVEIK CD33-binding VH: EVQLVESGGGLVQPGGSLRLSCAASGFTFSSYGMSWVRQAPGKGLEWVANIKQDGSEKYYVDSVKGRFTISRDNAKNSLYLQMNSLRAEDTAVYYCAREGGPYYDSSGYFVYYGMDVWGQGTTVTVSS CD33-binding VL: DIQMTQSPSTLSASVGDRVTITCRASQSISSWLAWYQQKPGKAPKLLIYDASSLESGVPSRFSGSGSGTEFTLTISSLQPDDFATYYCQQYESFPTFGGGTKVEIK | binds |
| C26.I07 (bispecific antibody) NKG2D-binding VH: QVQLQQWGAGLLKPSETLSLTCAVYGGSFSGYYWSWIRQPPGKGLEWIGEIDHSGSTNYNPSLKSRVTISVDTSKNQFSLKLSSVTAADTAVYYCARARGPWSFDPWGQGTLVTVSS NKG2D-binding VL: DIQMTQSPSTLSASVGDRVTITCRASQSISSWLAWYQQKPGKAPKLLIYKASSLESGVPSRFSGSGSGTEFTLTISSLQPDDFATYYCQQYGSFPITFGGGTKVEIK CD33-binding VH: EVQLVESGGGLVQPGGSLRLSCAASGFTFGSYWMSWVRQAPGKGLEWVATIKQDGSEKSYVDSVKGRFTISRDNAKNSLYLQMNSLRAEDTAVYYCARPLNAGELDVWGQGTMVTVSS CD33-binding VL: DIQMTQSPSTLSASVGDRVTITCRASQSISSWLAWYQQKPGKAPKLLIYEASSLESGVPSRFSGSGSGTEFTLTISSLQPDDFATYYCQQSQSYPPITFGGGTKVEIK | binds |
| A44.G59 (bispecific antibody) NKG2D-binding VH: not shown NKG2D-binding VL: DIQMTQSPSSVSASVGDRVTITCRASQGIDSWLAWYQQKPGKAPKLLIYAASSLQSGVPSRFSGSGSGTDFTLTISSLQPEDFATYYCQQGVSYPRTFGGGTKVEIK CD33-binding VH: EVQLVESGGGLVQPGGSLRLSCAASGFTFSSYGMSWVRQAPGKGLEWVANIKQDGSEKYYVDSVKGRFTISRDNAKNSLYLQMNSLRAEDTAVYYCAREGGPYYDSSGYFVYYGMDVWGQGTTVTVSS CD33-binding VL: DIQMTQSPSTLSASVGDRVTITCRASQSISSWLAWYQQKPGKAPKLLIYDASSLESGVPSRFSGSGSGTEFTLTISSLQPDDFATYYCQQYESFPTFGGGTKVEIK | binds |
| A49.H76 (bispecific antibody) NKG2D-binding VH: EVQLVESGGGLVKPGGSLRLSCAASGFTFSSYSMNWVRQAPGKGLEWVSSISSSSSYIYYADSVKGRFTISRDNAKNSLYLQMNSLRAEDTAVYYCARGAPMGAAAGWFDPWGQGTLVTVSS NKG2D-binding VL: DIQMTQSPSSVSASVGDRVTITCRASQGISSWLAWYQQKPGKAPKLLIYAASSLQSGVPSRFSGSGSGTDFTLTISSLQPEDFATYYCQQGVSFPRTFGGGTKVEIK CD33-binding VH: EVQLLESGGGLVQPGGSLRLSCAASGFTFSKYTMSWVRQAPGKGLEWVSAIVGSGESTYFADSVKGRFTISRDNSKNTLYLQMNSLRAEDTAVYYCAREGGPYYDSSGYFVYYGMDVWGQGTTVTVSS CD33-binding VL: DIQMTQSPSTLSASVGDRVTITCRASQSISSWLAWYQQKPGKAPKLLIYKASSLESGVPSRFSGSGSGTEFTLTISSLQPDDFATYYCQQYDDLPTFGGGTKVEIK | binds |
| C26.I35 (bispecific antibody) NKG2D-binding VH: QVQLQQWGAGLLKPSETLSLTCAVYGGSFSGYYWSWIRQPPGKGLEWIGEIDHSGSTNYNPSLKSRVTISVDTSKNQFSLKLSSVTAADTAVYYCARARGPWSFDPWGQGTLVTVSS NKG2D-binding VL: DIQMTQSPSTLSASVGDRVTITCRASQSISSWLAWYQQKPGKAPKLLIYKASSLESGVPSRFSGSGSGTEFTLTISSLQPDDFATYYCQQYGSFPITFGGGTKVEIK CD33-binding VH: QLQLQESGPGLVKPSETLSLTCTVSGGSISSTDYYWGWIRQPPGKGLEWIGSIGYSGTYYNPSLKSRVTISVDTSKNQFSLKLSSVTAADTAVYYCARETAHDVHGMDVWGQGTTVTVSS CD33-binding VL: EIVLTQSPATLSLSPGERATLSCRASHSVYSYLAWYQQKPGQAPRLLIYDASNRATGIPARFSGSGSGTDFTLTISSLEPEDFAVYYCQQYDNLPTFGGGTKVEIK | binds |
| A44.H76 (bispecific antibody) NKG2D-binding VH: not shown NKG2D-binding VL: DIQMTQSPSSVSASVGDRVTITCRASQGIDSWLAWYQQKPGKAPKLLIYAASSLQSGVPSRFSGSGSGTDFTLTISSLQPEDFATYYCQQGVSYPRTFGGGTKVEIK CD33-binding VH: EVQLLESGGGLVQPGGSLRLSCAASGFTFSKYTMSWVRQAPGKGLEWVSAIVGSGESTYFADSVKGRFTISRDNSKNTLYLQMNSLRAEDTAVYYCAREGGPYYDSSGYFVYYGMDVWGQGTTVTVSS CD33-binding VL: DIQMTQSPSTLSASVGDRVTITCRASQSISSWLAWYQQKPGKAPKLLIYKASSLESGVPSRFSGSGSGTEFTLTISSLQPDDFATYYCQQYDDLPTFGGGTKVEIK | binds |
| A44.I35 (bispecific antibody) NKG2D-binding VH: not shown NKG2D-binding VL: DIQMTQSPSSVSASVGDRVTITCRASQGIDSWLAWYQQKPGKAPKLLIYAASSLQSGVPSRFSGSGSGTDFTLTISSLQPEDFATYYCQQGVSYPRTFGGGTKVEIK CD33-binding VH: QLQLQESGPGLVKPSETLSLTCTVSGGSISSTDYYWGWIRQPPGKGLEWIGSIGYSGTYYNPSLKSRVTISVDTSKNQFSLKLSSVTAADTAVYYCARETAHDVHGMDVWGQGTTVTVSS CD33-binding VL: EIVLTQSPATLSLSPGERATLSCRASHSVYSYLAWYQQKPGQAPRLLIYDASNRATGIPARFSGSGSGTDFTLTISSLEPEDFAVYYCQQYDNLPTFGGGTKVEIK | binds |
| C26.H76 (bispecific antibody) NKG2D-binding VH: QVQLQQWGAGLLKPSETLSLTCAVYGGSFSGYYWSWIRQPPGKGLEWIGEIDHSGSTNYNPSLKSRVTISVDTSKNQFSLKLSSVTAADTAVYYCARARGPWSFDPWGQGTLVTVSS NKG2D-binding VL: DIQMTQSPSTLSASVGDRVTITCRASQSISSWLAWYQQKPGKAPKLLIYKASSLESGVPSRFSGSGSGTEFTLTISSLQPDDFATYYCQQYGSFPITFGGGTKVEIK CD33-binding VH: EVQLLESGGGLVQPGGSLRLSCAASGFTFSKYTMSWVRQAPGKGLEWVSAIVGSGESTYFADSVKGRFTISRDNSKNTLYLQMNSLRAEDTAVYYCAREGGPYYDSSGYFVYYGMDVWGQGTTVTVSS CD33-binding VL: DIQMTQSPSTLSASVGDRVTITCRASQSISSWLAWYQQKPGKAPKLLIYKASSLESGVPSRFSGSGSGTEFTLTISSLQPDDFATYYCQQYDDLPTFGGGTKVEIK | binds |
| A49.G59 (bispecific antibody) NKG2D-binding VH: EVQLVESGGGLVKPGGSLRLSCAASGFTFSSYSMNWVRQAPGKGLEWVSSISSSSSYIYYADSVKGRFTISRDNAKNSLYLQMNSLRAEDTAVYYCARGAPMGAAAGWFDPWGQGTLVTVSS NKG2D-binding VL: DIQMTQSPSSVSASVGDRVTITCRASQGISSWLAWYQQKPGKAPKLLIYAASSLQSGVPSRFSGSGSGTDFTLTISSLQPEDFATYYCQQGVSFPRTFGGGTKVEIK CD33-binding VH: EVQLVESGGGLVQPGGSLRLSCAASGFTFSSYGMSWVRQAPGKGLEWVANIKQDGSEKYYVDSVKGRFTISRDNAKNSLYLQMNSLRAEDTAVYYCAREGGPYYDSSGYFVYYGMDVWGQGTTVTVSS CD33-binding VL: DIQMTQSPSTLSASVGDRVTITCRASQSISSWLAWYQQKPGKAPKLLIYDASSLESGVPSRFSGSGSGTEFTLTISSLQPDDFATYYCQQYESFPTFGGGTKVEIK | binds |
| A49.I35 (bispecific antibody) NKG2D-binding VH: EVQLVESGGGLVKPGGSLRLSCAASGFTFSSYSMNWVRQAPGKGLEWVSSISSSSSYIYYADSVKGRFTISRDNAKNSLYLQMNSLRAEDTAVYYCARGAPMGAAAGWFDPWGQGTLVTVSS NKG2D-binding VL: DIQMTQSPSSVSASVGDRVTITCRASQGISSWLAWYQQKPGKAPKLLIYAASSLQSGVPSRFSGSGSGTDFTLTISSLQPEDFATYYCQQGVSFPRTFGGGTKVEIK CD33-binding VH: QLQLQESGPGLVKPSETLSLTCTVSGGSISSTDYYWGWIRQPPGKGLEWIGSIGYSGTYYNPSLKSRVTISVDTSKNQFSLKLSSVTAADTAVYYCARETAHDVHGMDVWGQGTTVTVSS CD33-binding VL: EIVLTQSPATLSLSPGERATLSCRASHSVYSYLAWYQQKPGQAPRLLIYDASNRATGIPARFSGSGSGTDFTLTISSLEPEDFAVYYCQQYDNLPTFGGGTKVEIK | binds |

Reference: patent US20220380459A1 (DRAGONFLY THERAPEUTICS, published 2022)
